The supplement of paper PMC10065799, “High-throughput profiling of sequence recognition by tyrosine kinases and SH2 domains using bacterial peptide display” (eLife, 2023)

Legend:
AncSZ = experiment: phosphorylation enrichment, bacterial display (enrichment ratio); higher = better substrate or ligand; peptides without Tyr show the background
EPHB1 = EPHB1 (UniProt P54762); experiment: as above
EPHB2 = EPHB2 (UniProt P29323); experiment: as above
FGFR1 = FGFR1 (UniProt P11362); experiment: as above
FGFR3 = FGFR3 (UniProt P22607); experiment: as above
Fer (mouse) = experiment: as above
Fes = Fes (UniProt P07332); experiment: as above
Fyn = Fyn (UniProt P06241); experiment: as above
Hck = Hck (UniProt P08631); experiment: as above
Jak2 = Jak2 (UniProt O60674); experiment: as above
MERTK = MERTK (UniProt Q12866); experiment: as above
c-Abl (mouse) = experiment: as above
c-Src = experiment: as above
Grb2 SH2 = Grb2 SH2 (UniProt P62993); experiment: SH2 binding enrichment of the phosphorylated peptide, bacterial display (enrichment ratio); higher = better substrate or ligand; peptides without Tyr show the background
SHP2-C SH2 = experiment: as above
c-Src SH2 = experiment: as above
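Throughout, for SH2 binding enrichment of the phosphorylated peptide, bacterial display: peptide library displayed on the E. coli surface as eCPX fusions, selected cells deep-sequenced, score is each peptide's frequency after selection divided by its frequency in the input.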
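Throughout, for phosphorylation enrichment, bacterial display: 11-residue human phosphosite peptides and single-mutation variants displayed on the E. coli surface, counted by deep sequencing, each peptide's frequency after selection divided by its frequency in the unselected input library; frequency after pTyr selection over input frequency; kinase dosed for 20-30% of maximal phosphorylation in three min.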

FGFR1, sequence (P11362 whole entry, looked up): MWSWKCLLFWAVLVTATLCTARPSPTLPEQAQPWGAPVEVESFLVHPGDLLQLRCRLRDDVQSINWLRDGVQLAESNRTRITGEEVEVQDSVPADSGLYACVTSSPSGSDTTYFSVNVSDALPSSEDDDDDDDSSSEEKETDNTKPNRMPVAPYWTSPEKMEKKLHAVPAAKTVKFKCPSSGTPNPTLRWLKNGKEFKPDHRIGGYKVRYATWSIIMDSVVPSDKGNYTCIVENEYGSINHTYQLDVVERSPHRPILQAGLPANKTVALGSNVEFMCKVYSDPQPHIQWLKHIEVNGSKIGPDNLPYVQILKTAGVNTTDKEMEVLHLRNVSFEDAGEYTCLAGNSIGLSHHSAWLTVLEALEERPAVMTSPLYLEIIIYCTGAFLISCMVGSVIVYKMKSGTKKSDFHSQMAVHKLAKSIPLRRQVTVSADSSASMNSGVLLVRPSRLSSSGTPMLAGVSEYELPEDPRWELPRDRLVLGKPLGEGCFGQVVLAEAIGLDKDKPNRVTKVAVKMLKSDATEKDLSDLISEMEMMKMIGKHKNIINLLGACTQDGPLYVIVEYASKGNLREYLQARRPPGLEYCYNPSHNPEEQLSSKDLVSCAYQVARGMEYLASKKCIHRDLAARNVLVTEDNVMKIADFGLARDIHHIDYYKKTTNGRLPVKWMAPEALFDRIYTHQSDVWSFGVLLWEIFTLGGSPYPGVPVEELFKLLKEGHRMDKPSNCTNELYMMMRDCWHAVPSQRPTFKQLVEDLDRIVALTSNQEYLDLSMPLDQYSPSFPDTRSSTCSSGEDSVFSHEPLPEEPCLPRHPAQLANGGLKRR
Jak2, sequence (O60674 whole entry, looked up): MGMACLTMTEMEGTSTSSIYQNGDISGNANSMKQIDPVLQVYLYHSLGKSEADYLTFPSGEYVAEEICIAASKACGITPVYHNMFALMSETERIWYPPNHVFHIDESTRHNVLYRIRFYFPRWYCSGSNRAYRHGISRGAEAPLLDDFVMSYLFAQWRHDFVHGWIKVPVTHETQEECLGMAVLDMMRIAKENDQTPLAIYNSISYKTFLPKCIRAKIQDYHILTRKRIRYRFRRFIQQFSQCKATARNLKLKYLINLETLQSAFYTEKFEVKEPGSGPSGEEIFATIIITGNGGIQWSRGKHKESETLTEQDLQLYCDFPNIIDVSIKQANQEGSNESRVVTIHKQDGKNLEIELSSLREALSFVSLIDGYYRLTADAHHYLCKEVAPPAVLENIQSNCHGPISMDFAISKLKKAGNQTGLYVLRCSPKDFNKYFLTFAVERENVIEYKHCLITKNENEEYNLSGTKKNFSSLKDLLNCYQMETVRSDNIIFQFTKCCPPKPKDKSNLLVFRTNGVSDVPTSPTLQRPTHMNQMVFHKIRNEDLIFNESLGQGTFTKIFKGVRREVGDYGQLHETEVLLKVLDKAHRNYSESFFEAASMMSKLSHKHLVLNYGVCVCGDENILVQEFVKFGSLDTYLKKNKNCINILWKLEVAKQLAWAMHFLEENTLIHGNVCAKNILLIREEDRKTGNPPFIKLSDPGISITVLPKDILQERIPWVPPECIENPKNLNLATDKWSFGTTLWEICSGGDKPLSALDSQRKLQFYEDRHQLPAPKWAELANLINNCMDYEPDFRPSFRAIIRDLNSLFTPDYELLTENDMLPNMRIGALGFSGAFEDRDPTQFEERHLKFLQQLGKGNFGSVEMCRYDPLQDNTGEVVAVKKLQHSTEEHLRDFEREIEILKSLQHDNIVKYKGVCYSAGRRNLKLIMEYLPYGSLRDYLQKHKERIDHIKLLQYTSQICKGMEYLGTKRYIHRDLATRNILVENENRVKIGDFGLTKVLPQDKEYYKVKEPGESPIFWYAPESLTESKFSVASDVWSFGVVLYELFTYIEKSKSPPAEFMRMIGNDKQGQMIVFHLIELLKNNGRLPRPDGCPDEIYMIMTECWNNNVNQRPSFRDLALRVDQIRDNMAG
FGFR3, sequence (P22607 whole entry, looked up): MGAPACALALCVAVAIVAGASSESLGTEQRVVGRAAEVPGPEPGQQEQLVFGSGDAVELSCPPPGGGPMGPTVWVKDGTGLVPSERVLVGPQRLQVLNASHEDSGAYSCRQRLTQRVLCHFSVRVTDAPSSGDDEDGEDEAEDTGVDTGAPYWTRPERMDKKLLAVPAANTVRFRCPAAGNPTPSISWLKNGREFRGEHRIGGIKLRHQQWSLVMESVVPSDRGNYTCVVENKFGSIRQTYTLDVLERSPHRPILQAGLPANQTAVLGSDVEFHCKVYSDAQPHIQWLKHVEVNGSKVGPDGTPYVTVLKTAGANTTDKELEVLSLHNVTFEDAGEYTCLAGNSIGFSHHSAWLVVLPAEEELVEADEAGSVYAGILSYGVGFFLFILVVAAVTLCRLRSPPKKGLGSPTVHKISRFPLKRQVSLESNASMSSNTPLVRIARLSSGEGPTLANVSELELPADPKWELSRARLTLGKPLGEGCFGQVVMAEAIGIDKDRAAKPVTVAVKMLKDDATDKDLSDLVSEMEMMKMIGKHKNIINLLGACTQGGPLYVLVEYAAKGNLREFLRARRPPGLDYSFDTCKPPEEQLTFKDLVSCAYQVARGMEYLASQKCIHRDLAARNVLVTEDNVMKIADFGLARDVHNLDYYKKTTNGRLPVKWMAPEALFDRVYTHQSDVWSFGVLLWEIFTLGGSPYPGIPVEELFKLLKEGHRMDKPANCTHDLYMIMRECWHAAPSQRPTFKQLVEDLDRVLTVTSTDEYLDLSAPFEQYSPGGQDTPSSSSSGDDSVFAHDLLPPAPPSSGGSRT
MERTK, sequence (Q12866 whole entry, looked up): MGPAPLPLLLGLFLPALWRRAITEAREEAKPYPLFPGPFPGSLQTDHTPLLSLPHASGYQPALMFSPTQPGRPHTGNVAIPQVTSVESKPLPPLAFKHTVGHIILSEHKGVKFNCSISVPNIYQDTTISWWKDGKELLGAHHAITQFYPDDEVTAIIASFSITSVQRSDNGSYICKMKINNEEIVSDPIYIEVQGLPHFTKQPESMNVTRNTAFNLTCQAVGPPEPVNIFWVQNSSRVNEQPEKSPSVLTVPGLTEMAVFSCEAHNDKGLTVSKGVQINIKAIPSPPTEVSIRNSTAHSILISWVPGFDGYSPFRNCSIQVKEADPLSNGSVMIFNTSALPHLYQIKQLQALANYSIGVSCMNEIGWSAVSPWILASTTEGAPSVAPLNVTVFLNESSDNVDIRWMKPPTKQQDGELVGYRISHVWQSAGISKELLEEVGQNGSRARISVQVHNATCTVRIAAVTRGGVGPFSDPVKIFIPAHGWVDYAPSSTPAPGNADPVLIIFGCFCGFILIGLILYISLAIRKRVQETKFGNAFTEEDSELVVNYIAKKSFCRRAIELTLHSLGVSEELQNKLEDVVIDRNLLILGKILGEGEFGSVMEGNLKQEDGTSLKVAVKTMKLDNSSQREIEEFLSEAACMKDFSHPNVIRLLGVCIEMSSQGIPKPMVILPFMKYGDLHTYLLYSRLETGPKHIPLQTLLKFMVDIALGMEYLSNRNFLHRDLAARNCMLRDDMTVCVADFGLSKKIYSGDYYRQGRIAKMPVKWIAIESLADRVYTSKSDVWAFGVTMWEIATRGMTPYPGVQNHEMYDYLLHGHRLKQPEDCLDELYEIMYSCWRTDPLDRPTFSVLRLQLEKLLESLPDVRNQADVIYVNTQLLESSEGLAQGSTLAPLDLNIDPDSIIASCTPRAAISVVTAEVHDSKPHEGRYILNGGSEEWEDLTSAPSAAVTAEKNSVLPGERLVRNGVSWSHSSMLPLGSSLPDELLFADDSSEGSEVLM
EPHB1, sequence (P54762 whole entry, looked up): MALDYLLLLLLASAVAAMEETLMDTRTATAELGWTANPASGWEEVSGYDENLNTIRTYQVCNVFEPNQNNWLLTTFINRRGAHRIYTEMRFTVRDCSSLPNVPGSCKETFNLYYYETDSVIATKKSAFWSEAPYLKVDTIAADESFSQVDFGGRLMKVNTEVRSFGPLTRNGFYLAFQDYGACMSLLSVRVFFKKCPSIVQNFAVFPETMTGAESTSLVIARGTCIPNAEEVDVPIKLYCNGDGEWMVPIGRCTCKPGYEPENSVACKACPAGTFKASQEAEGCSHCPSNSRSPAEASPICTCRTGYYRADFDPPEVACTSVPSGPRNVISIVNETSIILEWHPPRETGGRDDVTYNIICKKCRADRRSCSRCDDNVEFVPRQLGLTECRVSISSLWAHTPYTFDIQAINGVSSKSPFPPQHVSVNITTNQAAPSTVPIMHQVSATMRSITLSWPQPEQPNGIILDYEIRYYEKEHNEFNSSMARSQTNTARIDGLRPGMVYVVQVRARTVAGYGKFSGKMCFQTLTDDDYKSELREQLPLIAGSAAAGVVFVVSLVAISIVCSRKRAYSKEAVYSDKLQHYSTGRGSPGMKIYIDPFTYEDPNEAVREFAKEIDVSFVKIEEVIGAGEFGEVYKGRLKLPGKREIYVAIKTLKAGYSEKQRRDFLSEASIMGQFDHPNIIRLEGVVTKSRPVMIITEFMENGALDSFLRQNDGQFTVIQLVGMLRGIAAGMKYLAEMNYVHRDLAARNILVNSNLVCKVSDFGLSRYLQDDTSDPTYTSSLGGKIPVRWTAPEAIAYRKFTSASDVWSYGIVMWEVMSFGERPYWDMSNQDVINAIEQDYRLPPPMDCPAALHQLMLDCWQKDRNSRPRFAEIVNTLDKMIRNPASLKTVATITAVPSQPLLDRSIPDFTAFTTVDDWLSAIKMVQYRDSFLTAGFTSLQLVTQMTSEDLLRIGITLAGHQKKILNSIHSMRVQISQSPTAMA

SH2 binding enrichment (Grb2 SH2)	SH2 binding enrichment (SHP2-C SH2)	SH2 binding enrichment (c-Src SH2)	Sequence	phosphorylation enrichment (AncSZ)	phosphorylation enrichment (EPHB1)	phosphorylation enrichment (EPHB2)	phosphorylation enrichment (FGFR1)	phosphorylation enrichment (FGFR3)	phosphorylation enrichment (Fer (mouse))	phosphorylation enrichment (Fes)	phosphorylation enrichment (Fyn)	phosphorylation enrichment (Hck)	phosphorylation enrichment (Jak2)	phosphorylation enrichment (MERTK)	phosphorylation enrichment (c-Abl (mouse))	phosphorylation enrichment (c-Src)
0.979	0.953	0.725	NQILPYIEELV [PPP2R1B_Y341_K343E]	1.37	0.673	0.644	0.533	0.781	0.931	1.28	0.53	0.568	1.45	0.504	0.875	0.507
0.738	0.547	0.329	DLDLTYIFPNI [PTEN_Y27_YF]	4.58	2.03	1.15	3.31	2.77	0.56	1.34	6.27	1.76	2.57	3.52	1.17	3.89
0.795	0.714	0.473	EDGRLYAVKCS [PKMYT1_Y136_R140C]	0.972	0.594	0.609	0.513	0.66	0.529	1.12	0.589	0.792	0.861	0.549	0.82	0.63
0.886	0.766	0.549	KWTVDYLSQVG [TYW5_Y48]	0.953	0.602	0.494	0.605	0.63	0.391	1.05	0.443	0.462	0.887	0.373	0.635	0.466
0.774	0.994	0.918	FKEVVYQAMEE [TACC3_Y684_E680K]	1.55	1.06	0.814	0.771	0.884	0.829	1.05	2.37	1.66	1.04	1.62	1.11	2.88
0.821	1.99	0.363	FRRITYFNWRH [PDE6B_Y556_H557Y_YF]	0.817	0.626	0.625	0.553	0.476	0.423	0.8	0.607	0.832	0.852	0.615	0.573	0.673

Second part, the sequence before the results:

Sequence	SH2 binding enrichment (Grb2 SH2)	SH2 binding enrichment (SHP2-C SH2)	SH2 binding enrichment (c-Src SH2)	phosphorylation enrichment (AncSZ)	phosphorylation enrichment (EPHB1)	phosphorylation enrichment (EPHB2)	phosphorylation enrichment (FGFR1)	phosphorylation enrichment (FGFR3)	phosphorylation enrichment (Fer (mouse))	phosphorylation enrichment (Fes)	phosphorylation enrichment (Fyn)	phosphorylation enrichment (Hck)	phosphorylation enrichment (Jak2)	phosphorylation enrichment (MERTK)	phosphorylation enrichment (c-Abl (mouse))	phosphorylation enrichment (c-Src)
QRVLLYVQRET [GRHL3_Y518_R520Q]	1.66	1.52	1.03	1.82	1.04	0.763	0.855	1.13	0.885	1.89	0.673	0.509	1.89	0.452	1.36	0.57
ANNPLYKEVTS [ITGB3_Y773_A776V]	1.07	0.563	0.733	0.695	0.506	0.409	0.495	0.58	0.486	0.797	0.428	0.551	0.691	0.481	0.584	0.467
RGVTRYIFNRE [HLA-DQB1_Y62_Y58G_YF]	0.821	0.512	0.494	2.22	1	0.766	0.757	1.27	0.886	1.85	0.982	1.08	1.74	1.59	1.34	1.38
ERLLDYTRTVQ [INPP5E_Y439]	0.777	0.584	0.39	0.945	0.663	0.451	0.518	0.665	0.544	1.06	0.495	0.439	1.06	0.365	0.853	0.493
TEAEPYYRSLR [NPHS1_Y1138]	0.961	0.864	0.707	0.7	0.422	0.425	0.458	0.609	0.425	0.824	0.373	0.503	0.809	0.371	0.722	0.512
SRIWVYNHYRC [BRCA2_Y2621_W2626C]	0.938	0.864	0.695	0.927	0.555	0.587	0.51	0.726	0.482	1.11	0.396	0.459	0.934	0.377	0.65	0.392
PAQAAYQKVVA [HBB_Y131_V127A]	0.9	0.884	0.87	0.647	0.562	0.67	0.544	0.62	0.477	0.771	0.879	0.542	0.59	0.349	0.589	0.375
PVQAAYPKVVA [HBB_Y131_Q132P]	0.904	0.697	0.386	0.706	0.902	0.542	0.322	0.503	0.261	0.804	0.42	0.335	0.828	0.504	0.501	1
QSPQLYKQLCI [DARS1_Y253_M256L]	0.585	0.625	0.432	1.02	0.511	0.957	0.653	1.05	0.483	1.12	0.719	0.706	0.875	0.432	0.449	0.53
